Experimental findings from patent US7223850 (RIGEL PHARMACEUTICALS, dated 2007) are described below.

For this assay, the target named is T1, HA-tagged RIP (UniProt Q13546 1-671, limits assumed).
T1 construct: also called HA-RIP; not shown: HA tag
T1 sequence (looked up): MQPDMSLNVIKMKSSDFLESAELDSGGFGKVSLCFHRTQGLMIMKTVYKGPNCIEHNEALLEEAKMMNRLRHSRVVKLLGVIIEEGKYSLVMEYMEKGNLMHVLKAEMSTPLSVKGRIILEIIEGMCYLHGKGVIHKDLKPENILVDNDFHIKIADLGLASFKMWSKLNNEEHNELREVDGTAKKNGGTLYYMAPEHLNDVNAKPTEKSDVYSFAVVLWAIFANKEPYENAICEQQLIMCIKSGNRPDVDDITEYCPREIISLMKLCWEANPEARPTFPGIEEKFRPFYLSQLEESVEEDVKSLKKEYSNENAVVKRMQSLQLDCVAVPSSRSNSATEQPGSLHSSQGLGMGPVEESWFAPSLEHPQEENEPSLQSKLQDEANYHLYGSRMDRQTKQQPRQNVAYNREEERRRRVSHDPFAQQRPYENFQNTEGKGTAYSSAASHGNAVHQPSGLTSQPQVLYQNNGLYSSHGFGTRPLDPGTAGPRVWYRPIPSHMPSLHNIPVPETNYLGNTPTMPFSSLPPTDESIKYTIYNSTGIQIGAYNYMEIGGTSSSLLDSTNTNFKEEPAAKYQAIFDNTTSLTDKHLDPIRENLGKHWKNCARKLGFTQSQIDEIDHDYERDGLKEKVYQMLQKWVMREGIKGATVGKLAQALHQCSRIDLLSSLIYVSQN
As to the kind of experiment: co-immunoprecipitation, HA-RIP and Flag-Apop3 mutant co-transfected in Phoenix-A (293 T) cells, anti-Flag immunoblot.

B1: Flag-tagged Apop3(287-518) (other)
chain: FQMVENNMNAAVSTVKDFLSQLKSSNRRFSIPESGQGGTEMDGFRRTIENQHSRNDVMVSEWLNKLNLEEPPSSVPKKCPSLTKRSRAQEEQVPQAWTAGTSSDSMAQPPQTPETSTFRNQMPSPTSTGTPSPGPRGNQGAERQGMNWSCRTPEPNPVTGRPLVNIYNCSGVQVGDNNYLTMQQTTALPTWGLAPSGKGRGLQHPPPVGSQEGPKDPEAWSRPQGWYNHSGK
notes: not shown: Flag tag
Regarding B1, the binding result is listed as “no binding”.

B2: Flag-tagged Apop3(1-196) (enzyme)
chain: MSCVKLWPSGAPAPLVSIEELENQELVGKDGFGTVFRAQHRKWGYDVAVKIVNSKAISREVKAMASLDNEFVLRLEGVIEKVNWDQDPKPALVTKFMENGSLSGLLQSQCPRPWPLLCRLLKEVVLGMFYLHDQNPVLLHRDLKPSNVLPDPELHVKLADFGLSTFQGGSQSGTGSGEPGGTLGYLAPELFVNVNR
notes: not shown: Flag tag
Consider B2, for which the binding result is “no binding”.

B3: Flag-tagged Apop3(1-251) (enzyme)
chain: MSCVKLWPSGAPAPLVSIEELENQELVGKDGFGTVFRAQHRKWGYDVAVKIVNSKAISREVKAMASLDNEFVLRLEGVIEKVNWDQDPKPALVTKFMENGSLSGLLQSQCPRPWPLLCRLLKEVVLGMFYLHDQNPVLLHRDLKPSNVLPDPELHVKLADFGLSTFQGGSQSGTGSGEPGGTLGYLAPELFVNVNRKASTASDVYSFGILMWAVLAGREVELPTEPSLVYEAVCNRQNRPSLAELPQAGPE
notes: not shown: Flag tag
Consider B3, for which the binding result is given as “no binding”.
